What all share (assay): Competition binding to HLA class II molecule against reference peptide
Common to all, as to set-up: species or system Homme

One assay addresses HLA-DR1 (Homo sapiens, UniProt P01903+P01911). To be noted: for activité relative (ratio moyenne IC50 peptide testé / moyenne IC50 peptide de référence): DR1, lower ratio = better affinity. The text has this: (§1) Les tableaux 7 et 8 ci-dessous représentent la concentration en peptide compétiteur (nM) (SEQ ID N°9 ou SEQ ID N°10) pour laquelle 50% de la liaison du peptide de référence aux molécules HLA-DRB1 et aux molécules HLADRB3, -DRB4, -DRB5 et HLA-DP4, est inhibée (IC50).
(§2) Pour chacun des tableaux 7 et 8, les résultats sont issus de deux expériences indépendantes. Tableau 7 :
(§3) Les valeurs indiquées correspondent aux IC50 obtenus pour chaque peptide étudié.
(§4) Plus la valeur de l'IC50 est faible, meilleure est l'affinité du peptide pour la molécule HLA étudiée. Ainsi, il est important de noter que les peptides de référence n'ont pas tous la même capacité de liaison selon la molécule HLA considérée. Ces valeurs correspondent aux valeurs standards attendues.
(§5) Le tableau 9 ci-dessous illustre l'activité relative des deux composés peptidiques SEQ ID N°9 et 10 pour les molécules HLA-DR, HLA-DRB et HLA-DP4 étudiées. L'activité relative est calculée à partir des deux tableaux 7 et 8 ci-dessus de la façon suivante : Ratio = (moyenne des valeurs d'IC50 obtenues pour le peptide testé)/(moyenne des valeurs d'IC50 obtenues avec le peptide de référence). Tableau 9 :
(§6) Dans ce tableau 9, l'activité relative est définie par le ratio obtenu entre la moyenne des IC50 calculée avec le peptide compétiteur et la moyenne des IC50 calculée avec le peptide de référence. L'activité relative permet ainsi de comparer les propriétés de liaison du peptide testé à celle du peptide de référence qui correspond au peptide qui lie de façon la plus efficace une molécule HLA donnée. Ainsi, une activité relative de 2 signifie que le peptide testé lie 2 fois moins efficacement la molécule HLA étudiée que le peptide de référence. Ainsi, plus le ratio est faible, meilleure est l'affinité du peptide pour la molécule HLA considérée.

Another assay addresses HLA-DR11 (Homo sapiens, UniProt P01903+P01911). To be noted: lower ratio = better affinity.
Text: as §1, §2, §3, §4, §5, §6

A further assay has as its target HLA-DR13 (Homo sapiens, UniProt P01903+P01911). To be noted: lower ratio = better affinity.
Text: as §1, §2, §3, §4, §5, §6

Another assay deals with HLA-DR15 (Homo sapiens, UniProt P01903+P01911). To be noted: lower ratio = better affinity.
Text: as §1, §2, §3, §4, §5, §6

The next assay concerns the target HLA-DR3 (Homo sapiens, UniProt P01903+P01911). The following applies: for activité relative (ratio moyenne IC50 peptide testé / moyenne IC50 peptide de référence): lower ratio = better affinity; for affinité de liaison (in words): HLA-DR3.
Text: as §1, §2, §3, §4, §5, §6

The target of another assay is HLA-DR4 (Homo sapiens, UniProt P01903+P01911). To be noted: lower ratio = better affinity.
Text: as §1, §2, §3, §4, §5, §6

In a further assay the target is HLA-DR7 (Homo sapiens, UniProt P01903+P01911). The following applies: for activité relative (ratio moyenne IC50 peptide testé / moyenne IC50 peptide de référence): DR7, lower ratio = better affinity.
Text: as §1, §2, §3, §4, §5, §6

The target of the next assay is T1, HLA-DP401 (Homo sapiens, UniProt P04440+P20036).
T1 sequence (P04440 30-258): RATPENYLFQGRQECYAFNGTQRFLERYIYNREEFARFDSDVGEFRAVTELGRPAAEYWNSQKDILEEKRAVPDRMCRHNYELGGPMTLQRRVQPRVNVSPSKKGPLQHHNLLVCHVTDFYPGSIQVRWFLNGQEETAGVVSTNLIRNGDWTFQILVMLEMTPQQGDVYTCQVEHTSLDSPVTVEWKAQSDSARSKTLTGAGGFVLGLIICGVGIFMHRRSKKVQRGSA
T1 sequence (P20036 32-260 limits assumed): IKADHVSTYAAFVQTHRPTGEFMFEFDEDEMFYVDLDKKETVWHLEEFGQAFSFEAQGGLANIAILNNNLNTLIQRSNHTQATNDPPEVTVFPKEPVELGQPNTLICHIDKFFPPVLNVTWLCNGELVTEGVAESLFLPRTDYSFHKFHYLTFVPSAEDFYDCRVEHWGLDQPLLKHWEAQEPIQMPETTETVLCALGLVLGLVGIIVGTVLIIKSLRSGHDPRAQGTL
To be noted: lower ratio = better affinity.
Text: as §1, §2
(§7) Comme pour les résultats présentés ci-dessus, le tableau 8 illustre l'ensemble des valeurs d'IC50 obtenues pour les deux peptides testés et leur peptide de référence comme contrôle interne, pour la liaison aux molécules HLA-DRB3, -DRB4, -DRB5 et aux molécules HLA-DP401 et -DP402. Tableau 8 =:
as §5, §6

In another assay the target is T2, HLA-DP402 (Homo sapiens, UniProt P04440+P20036, A65V/A84D/A85E).
T2 sequence (P04440 30-258 A65V/A84D/A85E): T1 sequence (P04440 30-258) with A36V, A55D, A56E
T2 sequence (P20036 29-260): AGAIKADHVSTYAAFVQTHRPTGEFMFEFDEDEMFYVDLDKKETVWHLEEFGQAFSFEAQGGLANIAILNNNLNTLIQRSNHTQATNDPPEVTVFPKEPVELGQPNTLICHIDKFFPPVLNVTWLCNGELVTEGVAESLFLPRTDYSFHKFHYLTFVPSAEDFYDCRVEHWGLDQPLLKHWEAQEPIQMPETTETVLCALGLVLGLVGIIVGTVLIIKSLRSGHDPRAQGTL
The following applies: lower ratio = better affinity.
Text: as §1, §2, §7, §5, §6

The target of another assay is HLA-DRB3 (Homo sapiens, UniProt P01903+P79483). To be noted: for activité relative (ratio moyenne IC50 peptide testé / moyenne IC50 peptide de référence): DRB3, lower ratio = better affinity; for affinité de liaison (in words): HLADRB3.
Text: as §1, §2, §7, §5, §6

Another assay concerns the target HLA-DRB4 (Homo sapiens, UniProt P01903+P13762). The following applies: lower ratio = better affinity.
Text: as §1, §2, §7, §5, §6

For the next assay, the target named is HLA-DRB5 (Homo sapiens, UniProt P01903+Q30154). The following applies: for activité relative (ratio moyenne IC50 peptide testé / moyenne IC50 peptide de référence): lower ratio = better affinity.
Text: as §1, §2, §7, §5, §6

The record followed here is EP2938355B1, “MONOVALENT AND MULTIVALENT LEISHMANIA VACCINES” (VIRBAC S.A., priority 2012, dated 2014).

Numbering of substitutions follows the chain as printed. Some results are limits rather than exact numbers.

“EGYFVTDEKTGLVYRDGGVAAASSG (EGYFVTDEKTGLVYRDGGVAAASSG) [SEQ ID N°10]”: the “activité relative (ratio moyenne IC50 peptide testé / moyenne IC50 peptide de référence)” value is 271 with HLA-DR1; 3 with HLA-DR11; 18 with HLA-DR13; 1 with HLA-DR15; 0,2 with HLA-DR3 (DR3); 2 with HLA-DR4. Besides, the “activité relative (ratio moyenne IC50 peptide testé / moyenne IC50 peptide de référence)” value with HLA-DR7 was 928; with HLA-DP401, 5556; with HLA-DP402, 2000; in the assay with HLA-DRB3 it was 5; in the assay with HLA-DRB4, above 9535; in the assay with HLA-DRB5, 688. Moreover, the IC50 in the assay with HLA-DR3 (DR3, two independent experiments, one line each, read-out: IC50 (concentration en peptide compétiteur pour laquelle 50% de la liaison du peptide de référence est inhibée)) is 35 nM. Moreover, the “affinité de liaison (in words)” value with HLA-DR3 and with HLA-DRB3 was “bonne affinité de liaison” throughout.

Take “TNTLAVLQAFGRAIPELGKKW (TNTLAVLQAFGRAIPELGKKW) [SEQ ID N°9]”: the “activité relative (ratio moyenne IC50 peptide testé / moyenne IC50 peptide de référence)” value with HLA-DR1 is on record as 1; with HLA-DR11, 3; with HLA-DR13, 41; in the assay with HLA-DR15, 5; in the assay with HLA-DR3 (DR3), above 187; in the assay with HLA-DR4, 2. Besides, the “activité relative (ratio moyenne IC50 peptide testé / moyenne IC50 peptide de référence)” value is recorded as 3 with HLA-DR7; above 3727 with HLA-DP401; above 2222 with HLA-DP402; above 274 in the assay with HLA-DRB3; 1331 with HLA-DRB4; 0,9 with HLA-DRB5. Further, the “affinité de liaison (in words)” value is recorded as “affinité de liaison élevée” with HLA-DR1 (HLA-DR1); “n'est pas actif” in the assay with HLA-DR3; “affinité de liaison élevée” with HLA-DR7 (HLA-DR7); “n'est pas actif” in the assay with HLA-DRB3; “affinité de liaison élevée” with HLA-DRB5.
